Results reported in the supplement of paper PMC9170038.

Tested on: MS2 coat protein
Experiment: apparent KD of MS2 coat protein; designed switch direction (-1 OFF switch, 1 ON switch): -1; higher = weaker reporter binding
Outline: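 The reported apparent KD is a per-design median over clusters, from curve fits of normalised cluster fluorescence. Protein titrations used SNAP-549-labelled MS2 coat protein, doubled from 0.7 or 1.5 nM to 3 µM, in Tris-HCl pH 7.5 buffer with KCl, MgCl2, BSA, DTT, tRNA and Tween-20, with no input, 200 uM small-molecule ligand, or an oligonucleotide input. The RNA switches were transcribed on Illumina chips by stalled E. coli RNA polymerase.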

[1] = input ligand: microRNA oligo, concentration not stated
[2] = Eterna round: R95, input ligand: FMN 200 uM
[3] = Eterna round: R95, input ligand: microRNA oligo, concentration not stated
[4] = Eterna round: R95, input ligand: none

Sequence	apparent KD of MS2 coat protein (input ligand: FMN 200 uM) [nM]	apparent KD of MS2 coat protein [1] [nM]	apparent KD of MS2 coat protein (input ligand: none) [nM]	apparent KD of MS2 coat protein [2] [nM]	apparent KD of MS2 coat protein [3] [nM]	apparent KD of MS2 coat protein [4] [nM]
UGUUGUCGCGUAGGAUAUGUAUGAGGAUCACCCAUAAGAGUAUAUUUACCAUGAGGAUCACCCAUGUAGAAGGACGGGACAACU [pwkr exNG2 2xF5 1xFMN.12] (Eterna round: R96, puzzle: Exclusion NG 2)	232	75.6	127	–	–	–
CAUCAGAUAGGAUAUACAGGCCCGUCUUUAUAUUGAUCCCGACAUGAGGAUCACCCAUGUAGAAGGAUCAGAUG [Mod 27 - Jieux - Exclusion 2] (Eterna round: R97, puzzle: Exclusion 2)	21.2	–	16.1	–	–	–
CCCGGGUCUGCAGGAUAUUCGAAAGCAGGUCAAAGGUCACAUGAGGAUCACCCAUGUAGUUUAACGAAGAAGGGUGUCGCCCGU [Eternabot solution 38] (Eterna round: R96, puzzle: Exclusion NG 2)	168	76.7	162	–	–	–
AAGGAUAGAGGAUAUACGUAGAUACAGAUUCAUGUAGAACUACAUGAGGAUCACCCAUGUAGAAGGCUAUCCUA [Fiskers Ex 2 - 6] (Eterna round: R96, puzzle: Exclusion 2)	354	24.8	29	–	–	–
GUCCUGGUAGGAUAUGAGGUUCACGACAUGAGGAUCACCCAUGUGGCCGUGUCUCAUACUUCAGAAGGACCGACAG [Eternabot (L2) Solution 5] (Eterna round: R97, puzzle: Exclusion 5)	16.1	–	15.7	–	–	–
AGGUAACAUGAGGAUCACCCAUGUCAGGAUAUCAGUAAGAGGAGGAUAGAAUAGAGUAUGAGAAGGGACUAUAU [Excluse me! 23 - Jieux - Exclusion 1] (puzzle: Exclusion 1)	–	–	–	48	40.7	47.8
UAAUAAAGUGUGAGGAUAUGCUGGUCCUUAGAUCAGCAGAAGGCACAUGAGGAUCACCCAUGUAAUAUAUAAAU [Mat - Exclusion 4 - JL Mod - D56] (Eterna round: R96, puzzle: Brourd's mod of Exclusion 4)	–	29	–	–	–	–
UUAAUUAAUUAAUUAGAUCCUCACAUGAGGAUCACCCAUGUGCAGGAUAUCAGCUCGAUUAGAGCUGAGAAGGGCACUAUUAAU [ExNG3/10-B4] (Eterna round: R96, puzzle: Exclusion NG 3)	56.1	85	127	–	–	–
AUACCACGAGGAUAUCGUCUAUAAUACAUGAGGAUCACCCAUGUUAUAUCUGUAAUGUUUCGAGAAGGCGUUUGUU [JR_E5_Sub085] (puzzle: Exclusion 5)	–	–	–	–	21.3	–
CUUCGUUGCAAGGAUAUGUGAACGAAGAGGGAUACAGAAGGUGCUACAUGAGGAUCACCCAUGUGGGUUGAUUU [Eternabot (L1) Solution 48] (Eterna round: R97, puzzle: Exclusion 6)	363	–	226	–	–	–
CAGUACAGAGGAUAUACAUGAGGAUCACCCAUGUGUUCCAGCUAGGAGACUAGCAAGUGUAGAAGGCUGUACUG [Mat - Exclusion 3 - JL Mod - D8] (Eterna round: R97, puzzle: Exclusion 3)	592	–	405	–	–	–
GGUCCACAUGAGGAUCACCCAUGUUAGGAUAUCUCGCCCGAGCCCAUAUGGGCCAGGCAGAGAAGGAAUGUGAA [Quertixees] (puzzle: Exclusion 1)	–	–	–	–	18.8	–
CUUUUGUGAGGAUAUCAGGUGUGCUAGCGUACUGGUACAUCUGAGAAGGCACAUGAGGAUCACCCAUGUUCCUU [JL-ex4-3.18 Brourd mod] (puzzle: Exclusion 4)	–	–	–	–	13.5	–
GUCACAUGGGUAUAGGAUCACAUGAGGAUCACCCAUGUGACUAACAAGCUUUUUGCUCGUCUUAUGUCUAUGUGAAU [Stov1/18-A2] (Eterna round: R97, puzzle: Sensor, turn-off variant 1)	26.2	–	32.4	–	–	–
GGAACGACAGGAUAUACAUGAGGAUCACCCAUGUGAGGAAGAGUAAAGUGUGAAGGAGGUAGAAGGGUCAAGAA [AK-MS2ROC-r4-exclusion3-3] (Eterna round: R97, puzzle: Exclusion 3)	63.6	–	38.8	–	–	–
GCGCUGUGAGGAUAUUAGUAGUAGAUAAAAUAAACUAUUACUGAGAAGGCACAUGAGGAUCACCCAUGUUGCGC [Eli x4 4.04] (Eterna round: R97, puzzle: Exclusion 4)	24.7	–	19.6	–	–	–
AUUGUAUGAUACCUCUAAUACAUGAGGAUCACCCAUGUUAUCGAGGAUAUGCAGAAUAGAUUAGAGCAGAAGGCGAAGUAAUAU [JR_ExcNG3_Sub025] (Eterna round: R96, puzzle: Exclusion NG 3)	15	9.08	13.6	–	–	–
UCGGUGUCAGGAUAUACAUGAGGAUCACCCAUGUAGAGAGAAGAUAGGGAAAGAGUAGGUAGAAGGGACGAGAG [JR_Exclu3_Sub045] (puzzle: Exclusion 3)	–	–	–	43.7	29.1	41.7
ACUAGUCUAAAGGAUAUGGACCUGAACAAAUGGCCAGAAGGUUAAACAUGAGGAUCACCCAUGUAGGUGCGCCA [Eternabot (Original) Solution 18] (Eterna round: R97, puzzle: Exclusion 6)	31.2	–	27.2	–	–	–
CUUGUUUAUGUAGGAUAUGCCUGGCGUGCCUUUGCAGAAGGACAUGAGGAUCACCCAUGUAACAUGAGGCUCACCCAUGUCGCC [salish99_ExNG1_r04_107] (Eterna round: R96, puzzle: Exclusion NG 1)	142	94.8	153	–	–	–
AGAAGUAGUAACCGAUCCUACAUGAGGAUCACCCAUGUAGCCAGACGUGCACGCGAAGCUCGUCAGACUACCAGAUG [salish99_TOv1_r3_026] (puzzle: Sensor v3, turn-off variant 1)	–	–	–	618	447	398
AGUUAUUCAGGAUAUGGUGUGUUAUACAUGAGGAUCACCCAUGUGGGUCCUGGUUUGGCCUCAGAAGGGAAUGUUA [salish99_ex5_r4_123] (Eterna round: R97, puzzle: Exclusion 5)	507	–	600	–	–	–
AGAAGUAGUAGCCGAUCCUACAUGAGGAUCACCCAUGUAGCUAGACGUGCACGCGAUGCUCGUCAGACUACCAGAUG [salish99_TOv1_r3_031] (puzzle: Sensor v3, turn-off variant 1)	–	–	–	131	120	155
AAAAGUUAAGGAUAUACUUGAGGAUCACCCAAGUAGGUGGCUUCAGCCGGGAAACGGCGUAGAAGGUAGCAGAA [Atorin] (Eterna round: R97, puzzle: Exclusion 3)	65.2	–	60.5	–	–	–
UACAUGAGGAUCACCCAUGUUUUGUCGUGUAUGGUAUUUAUCUAGGAUAUCAAUUGGUUUAUUUAUGAGAAGGAGAAUAUUAAU [JMF's solution 57] (Eterna round: R96, puzzle: Exclusion NG 3)	36.1	31.6	33.3	–	–	–
